According to patent US20160075790A1 (Bristol-Myers Squibb, published 2016):
Numbering of substitutions follows the chain as printed. Several values for one entry are separate records, joined by “and”; a condition that tells them apart may be missing. Identical values can stand only once.

T1: human isoleucine zipper-CD40L (IZ-hCD40L) (human, UniProt P29965 113-261)
T1 sequence: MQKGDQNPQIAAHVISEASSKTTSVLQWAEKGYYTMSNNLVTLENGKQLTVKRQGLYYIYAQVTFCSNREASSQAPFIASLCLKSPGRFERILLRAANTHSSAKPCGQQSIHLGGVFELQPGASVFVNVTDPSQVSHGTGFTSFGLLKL

B1: BMS2h-766 (other)
VH: EVQLLESGGGLVQPGGSLRLSCAASGFTFGDYGMSWVRQAPGKGLEWVSYIDPLGRLTYYADSVKGRFTISRDNSKNTLYLQMNSLRAEDTAVYYCAEDLSSLQYGVSPNFDYWGQGTLVTVSS
B2: BMS2h-783 (other)
VH: EVQLLESGGGLVQPGGSLRLSCAASGFTFRDYDMGWVRQAPGKGLEWVSTISPLGHFTYYADSVKGRFTISRDNSKNTLYLQMNSLRAEDTAVYYCAKSGFHEYTEGFDYWGQGTLVTVSS
B3: BMS2h-780 (other)
VH: EVQLLESGGGLVQPGGSLRLSCAASGFTFGSYTMMWVRQAPGKGLEWVSEIDRTGERTYYADSVKGRFTISRDNSKNTLYLQMNSLRAEDTAVYYCAEPGFASLPFDYWGQGTLVTVSS
B4: BMS2h-785 (other)
VL: DIQMTQSPSSLSASVGDRVTITCRASQPIYGWLNWYQQKPGKAPKLLIYLTSGLQSGVPSRFSGSGSGTDFTLTISSLQPEDFATYYCQQIHSSPFTFGQGTKVEIKR
B5: BMS2h-765 (other)
VH: EVQLLESGGGLVQPGGSLRLSCAASGFTFSAYTMEWVRQAPGKGLEWVSSIGVTGYDTYYADSVKGRFTISRDNSKNTLYLQMNSLRAEDTAVYYCAKGGQGFDYWGQGTLVTVSS
B6: BMS2h-754 (other)
VH: EVQLLESGGGLVQPGGSLRLSCAASGFTFSRYDMVWVRQAPGKGLEWVSRINSMGLATYYADSVKGRFTISRDNSKNTLYLQMNSLRAEDTAVYYCAKDYSVAPHGYPLGFDYWGQGTLVTVSS
B7: BMS2h-774 (other)
VH: EVQLLESGGGLVQPGGSLRLSCAASGFTFREYDMGWVRQAPGKGLEWVSLISPPGRTTYYADSVKGRFTISRDNSKNTLYLQMNSLRAEDTAVYYCAKVVILGYTNRFDYWGQGTLVTVSS
B8: BMS2h-775 (other)
VH: EVQLLESGGGLVQPGGSLRLSCAASGFTFPNYGMLWVRQAPGKGLEWVSSINSSGMETYYADSVKGRFTISRDNSKNTLYLQMNSLRAEDTAVYYCAKFFRLNDHNSVFGFDYWGQGTLVTVSS
B9: BMS2h-747 (other)
VH: EVQLLESGGGLVQPGGSLRLSCAASGFTFDDGTMGWARQAPGKGLEWVSLILPSGSRTYYADSVKGRFTISRDNSKNTLYLQMNSLRAEDTAVYYCAKHSLTNRPFDYWGQGTLVTVSS
B10: BMS2h-752 (other)
VH: EVQLLESGGGLVQPGGSLRLSCAASGFTFSDYAMAWVRQAPGKGLEWVSRIGVEGGDTYYADSVKGRFTISRDNSKNTLYLQMNSLRAEDTAVYYCAKLLRLYRLGFDYWGQGTLVTVSS
B11: BMS2h-782 (other)
VH: EVQLLESGGGLVQPGGSLRLSCAASGFTFDDAEMFWVRQAPGKGLEWVSSIDARGLTTYYADPVKGRFTISRDNSKNTLYLQMNSLRAEDTAVYYCAEATSAMYPFDYWGQGTLVTVSS
B12: BMS2h-781 (other)
VH: EVQLLESGGGLVQPGGSLRLSCAASGFTFTDYTMYWVRQAPGKGLEWVSKISPSGRSTYYADSVKGRFTISRDNSKNTLYLQMNSLRAEDTAVYYCAKDPFGFDYWGQGTLVTVSS
B13: BMS2h-744 (other)
VH: EVQLLESGGGLVQPGGSLRLSCAASGFTFKEHDMFWVRQAPGKGLEWVSGIGAEGVWTYYADSVKGRFTISRDNSKNTLYLQMNSLRAEDTAVYYCAEPTMSNGSQSRFDYWGQGTLVTVSS
B14: BMS2h-757 (other)
VH: EVQLLESGGGLVQPGGSLRLSCAASGFTFKEYNMAWVRQAPGKGLEWVSSINFAGRTTYYADSVKGRFTISRDNSKNTLYLQMNSLRAEDTAVYYCAKLSLPLDIFSFDYWGQGTLVTVSS
B15: BMS2h-745 (other)
VH: EVQLLESGGGLVQPGGSLRLSCAASGFTFDNTEMAWVRQAPGKGLEWVSGIIEDGNRTYYADSVKGRFTISRDNSKNTLYLQMNSLRAEDTAVYYCAKIRNLHWDVGRQFDYWGQGTLVTVSS
B16: BMS2h-745-13 (other)
VH: B15 VH with V37I
B17: BMS2h-745-9 (other)
VH: B15 VH with L11S, I52T, D111V
B18: BMS2h-784 (other)
VH: B15 VH with N31R, T32A, E33G, A35G, G50L, I52G, E53R, D54G, N56D, R57I
B19: BMS2h-746 (other)
VH: B15 VH with D30G, N31S, T32A, A35G, I52S, E53R, D54P, N56Q, R57V
B20: BMS2h-745-2 (other)
VH: B15 VH with I52S, T91S, D111V
B21: BMS2h-745-1 (other)
VH: B15 VH with I52T
B22: BMS2h-745-14 (other)
VH: B15 VH with V37I, I52T
B23: BMS2h-758 (other)
VH: EVQLLESGGGLVQPGGSLRLSCAASGFTFGDYGMNWVRQAPGKGLEWVSHISSNGRFTYYADSVKGRFTISRDNSKNTLYLQMNSLRAEDTAVYYCAETSGYFDYWGQGTLVTVSS
B24: BMS2h-758-1 (other)
VH: B23 VH with T78M, Q82R, F103Y, D104E
B25: BMS2h-758-5 (other)
VH: B23 VH with T28A, D104E
B26: BMS2h-758-2 (other)
VH: B23 VH with D104E
B27: BMS2h-758-3 (other)
VH: B23 VH with G101S, D104E
B28: BMS2h-758-4 (other)
VH: B23 VH with Y80F, F103Y, D104E, Q108H

These binders were tested against T1, human isoleucine zipper-CD40L … (assay: cell-based or functional assay).

Row | hIZCD40L-driven Human B Cell Proliferation EC50 | Binder
1 | > 7 µM | B1
2 | > 2 µM | B2
3 | > 7 µM | B3
4 | 3.7 µM and > 7 µM | B4
5 | > 7 µM | B5
6 | 6.6 µM | B6
7 | > 7 µM | B7
8 | > 7 µM | B8
9 | > 7 µM | B9
10 | > 7 µM | B10
11 | > 7 µM | B11
12 | > 7 µM | B12
13 | > 7 µM | B13
14 | 6.4 µM | B14
15 | 6.4 µM and 3.5 µM and > 7 µM | B15
16 | > 7 µM | B16
17 | > 7 µM | B17
18 | > 4.7 µM | B18
19 | > 7 µM | B19
20 | > 7 µM | B20
21 | > 7 µM | B21
22 | > 7 µM | B22
23 | 5.9 µM | B23
24 | > 7 µM | B24
25 | > 7 µM | B25
26 | > 7 µM | B26
27 | > 7 µM | B27
28 | > 7 µM | B28
